In patent US20240109955A1 one finds IC50, pseudovirus neutralization and IC80, pseudovirus neutralization data, which are given here for 4 molecules.

Holding throughout (test): cell-based or functional assay
In assay [1] the target is SARS-CoV-2 Omicron BQ.1.1 spike protein (SARS-CoV-2).
Assay [2] deals with SARS-CoV-2 Omicron BA.2.75.2 spike protein (SARS-CoV-2).
In assay [3] the target is SARS-CoV-2 Omicron BQ.1 spike protein (SARS-CoV-2).
Assay [4] concerns the target SARS-CoV-2 Omicron XBB spike protein (SARS-CoV-2).
In assay [5] the target is SARS-CoV-2 Omicron BA.4/5 spike protein (SARS-CoV-2).
Assay [6] addresses SARS-CoV-2 spike (S) protein, Omicron sublineage XBB1.5 (SARS-CoV-2).
Assay [7] deals with SARS-CoV-2 spike (S) protein, Omicron sublineage BF.7 (SARS-CoV-2).

B1: MX1046 (bispecific antibody)
chain 1: EIVLTQSPGTLSLSPGETATLSCRASQSFSSDLAWYQQKPGQAPRLLIYGASSRATGIPDRFSGSGSGTDFTLTISRLEPADFAVYYCQQYGSSPPVTFGGGTKVEIKGGSSGDTVMTQSPLSLPVTPGEPASISCRSSQSLLNSNGYNYLDWYVQKPGQSPQLLIYLGSNRASGVPDRFSGSGSGTDFTLKISRVEAEDVGVYYCMQPLQTPLFTFGPGTKVEIKGGGGSGGSGSGGGGSASGSGQVTLRESGPALVKPTQTLTLTCTFSGFSLSTRGVCVSWIRQPPGKALEWLAFIDWDDDKYYNTSLKTRLTISKDTSKNQVVLTMTNVHPVDTATYYCARISSHHGSSWCTTFDYWGQGALVTVSAGGSSGEVQLVESGGGLIQPGGSLRLSCAASGVIVSYNYMNWVRQAPGKGLEWVSVIYSGGSTFYADSVRGRFTISRDNSKNTLYLQMNSLRAEDTAVYYCARDLGPAGAFDIWGLGTMVTVSSASGGSGDKTHTCPPCPAPELLGGPSVFLFPPKPKDTLMISRTPEVTCVVVDVSHEDPEVKFNWYVDGVEVHNAKTKPREEQYNSYVVSVLTVLHQDWLNGKEYKCKVSNKALPAPIEKTISKAKGQPREPQVYTLPPCRDELTKNQVSLWCLVKGFYPSDIAVEWESNGQPENNYKTTPPVLDSDGSFFKKLTVDKSRWQQGNVFSCSVLHEALHSHYTQKSLSLSPG
chain 2: DTVMTQSPLSLPVTPGEPASISCRSSQSLLNSNGYNYLDWYVQKPGQSPQLLIYLGSNRASGVPDRFSGSGSGTDFTLKISRVEAEDVGVYYCMQPLQTPLFTFGPGTKVEIKGGSSGEIVLTQSPGTLSLSPGETATLSCRASQSFSSDLAWYQQKPGQAPRLLIYGASSRATGIPDRFSGSGSGTDFTLTISRLEPADFAVYYCQQYGSSPPVTFGGGTKVEIKGGGGSGGSGSGGGGSASGSGEVQLVESGGGLIQPGGSLRLSCAASGVIVSYNYMNWVRQAPGKGLEWVSVIYSGGSTFYADSVRGRFTISRDNSKNTLYLQMNSLRAEDTAVYYCARDLGPAGAFDIWGLGTMVTVSSGGSSGQVTLRESGPALVKPTQTLTLTCTFSGFSLSTRGVCVSWIRQPPGKALEWLAFIDWDDDKYYNTSLKTRLTISKDTSKNQVVLTMTNVHPVDTATYYCARISSHHGSSWCTTFDYWGQGALVTVSAASGGSGDKTHTCPPCPAPELLGGPSVFLFPPKPKDTLMISRTPEVTCVVVDVSHEDPEVKFNWYVDGVEVHNAKTKPREEQYNSYVVSVLTVLHQDWLNGKEYKCKVSNKALPAPIEKTISKAKGQPREPQVCTLPPSRDELTKNQVSLSCAVKGFYPSDIAVEWESNGQPENNYKTTPPVLDSDGSFFLVSKLTVDKSRWQQGNVFSCSVLHEALHSHYTQKSLSLSPG
As to B1, the IC50, pseudovirus neutralization is 1.23 ng/mL in assay [1]; 0.36 ng/mL in assay [2]; 1.66 ng/mL in assay [3]; 1.26 ng/mL in assay [4]; 0.9 ng/mL in assay [5]. For the same molecule, the IC80, pseudovirus neutralization in assay [1] was found to be 3.97 ng/mL; in assay [2], 1.29 ng/mL; in assay [3] it was 4.08 ng/mL; in assay [4], 2.88 ng/mL; in assay [5], 1.56 ng/mL.

B2: A46 + E12 + B8 (protein)
VH 1: QVQLVESGGGVVQPGRSLRLSCAASGFTLSSYGMHWVRQAPGKGLEWVAVISYDGSNKYYVDSVKGRFTISRDNSKNTLYLQMNSLRAEDTAVYYCRWAYWELLPDYYYGMDVWGQGTTVTVSS
VL 1: QTVVTQEPSFSVSPGGTVTLTCGLSSGSVSTAYFPSWYQQTPGQAPRTLIYGTNTRSSGVPDRFSGSILGNKAALTITGAQADDESDYYCVLYMGRGIVVFGGGTKLTVL
VH 2: EVQLVESGGGLIQPGGSLRLSCAASGVIVSYNYMNWVRQAPGKGLEWVSVIYSGGSTFYADSVRGRFTISRDNSKNTLYLQMNSLRAEDTAVYYCARDLGPAGAFDIWGLGTMVTVSS
VL 2: EIVLTQSPGTLSLSPGETATLSCRASQSFSSDLAWYQQKPGQAPRLLIYGASSRATGIPDRFSGSGSGTDFTLTISRLEPADFAVYYCQQYGSSPPVTFGGGTKVEIK
VH 3: EVQLVESGGALIQPGGSLRLSCAASGIIVSANYMSWVRQAPGKGLEWVSVIYSGGSTFYADSVKGRFTISRDNSKNTLYLEMNSLRAEDTAVYYCARDAPILGVSDWGQGTLVTVSS
VL 3: EIVMTQSPAILSVSPGERATLSCRASQSVAINLAWYQQKPGQAPRLLIYAASSRATGIPGRFSGSGSETNFTLTISSLQSGDFAVYYCQQYITWPPSYTFGQGTKLEIK
As for B2, in assay [6], the IC50, pseudovirus neutralization is 12 nM and the IC80, pseudovirus neutralization amounted to 33 nM. In assay [7], this molecule showed an IC50, pseudovirus neutralization of 12.9 nM and an IC80, pseudovirus neutralization of 33.8 nM.

B3: A46 + E12 + E8 (protein)
VH 1: QVQLVESGGGVVQPGRSLRLSCAASGFTLSSYGMHWVRQAPGKGLEWVAVISYDGSNKYYVDSVKGRFTISRDNSKNTLYLQMNSLRAEDTAVYYCRWAYWELLPDYYYGMDVWGQGTTVTVSS
VL 1: QTVVTQEPSFSVSPGGTVTLTCGLSSGSVSTAYFPSWYQQTPGQAPRTLIYGTNTRSSGVPDRFSGSILGNKAALTITGAQADDESDYYCVLYMGRGIVVFGGGTKLTVL
VH 2: EVQLVESGGGLIQPGGSLRLSCAASGVIVSYNYMNWVRQAPGKGLEWVSVIYSGGSTFYADSVRGRFTISRDNSKNTLYLQMNSLRAEDTAVYYCARDLGPAGAFDIWGLGTMVTVSS
VL 2: EIVLTQSPGTLSLSPGETATLSCRASQSFSSDLAWYQQKPGQAPRLLIYGASSRATGIPDRFSGSGSGTDFTLTISRLEPADFAVYYCQQYGSSPPVTFGGGTKVEIK
VH 3: QVTLRESGPALVKPTQTLTLTCTFSGFSLSTRGVCVSWIRQPPGKALEWLAFIDWDDDKYYNTSLKTRLTISKDTSKNQVVLTMTNVHPVDTATYYCARISSHHGSSWCTTFDYWGQGALVTVSA
VL 3: DTVMTQSPLSLPVTPGEPASISCRSSQSLLNSNGYNYLDWYVQKPGQSPQLLIYLGSNRASGVPDRFSGSGSGTDFTLKISRVEAEDVGVYYCMQPLQTPLFTFGPGTKVEIK
As for B3, the IC50, pseudovirus neutralization in assay [6] was found to be 37.8 nM; in assay [7], 12 nM. Also, the values for the IC80, pseudovirus neutralization in assay [6] and in assay [7] were 96.7 nM and 30.6 nM, respectively.

B4: MX1045 (bispecific antibody)
chain 1: EIVLTQSPGTLSLSPGETATLSCRASQSFSSDLAWYQQKPGQAPRLLIYGASSRATGIPDRFSGSGSGTDFTLTISRLEPADFAVYYCQQYGSSPPVTFGGGTKVEIKGGSSGQTVVTQEPSFSVSPGGTVTLTCGLSSGSVSTAYFPSWYQQTPGQAPRTLIYGTNTRSSGVPDRFSGSILGNKAALTITGAQADDESDYYCVLYMGRGIVVFGGGTKLTVLGGGGSGGSGSGGGGSASGSGQVQLVESGGGVVQPGRSLRLSCAASGFTLSSYGMHWVRQAPGKGLEWVAVISYDGSNKYYVDSVKGRFTISRDNSKNTLYLQMNSLRAEDTAVYYCRWAYWELLPDYYYGMDVWGQGTTVTVSSGGSSGEVQLVESGGGLIQPGGSLRLSCAASGVIVSYNYMNWVRQAPGKGLEWVSVIYSGGSTFYADSVRGRFTISRDNSKNTLYLQMNSLRAEDTAVYYCARDLGPAGAFDIWGLGTMVTVSSASGGSGDKTHTCPPCPAPELLGGPSVFLFPPKPKDTLMISRTPEVTCVVVDVSHEDPEVKFNWYVDGVEVHNAKTKPREEQYNSYVVSVLTVLHQDWLNGKEYKCKVSNKALPAPIEKTISKAKGQPREPQVYTLPPCRDELTKNQVSLWCLVKGFYPSDIAVEWESNGQPENNYKTTPPVLDSDGSFFKKLTVDKSRWQQGNVFSCSVLHEALHSHYTQKSLSLSPG
chain 2: QTVVTQEPSFSVSPGGTVTLTCGLSSGSVSTAYFPSWYQQTPGQAPRTLIYGTNTRSSGVPDRFSGSILGNKAALTITGAQADDESDYYCVLYMGRGIVVFGGGTKLTVLGGSSGEIVLTQSPGTLSLSPGETATLSCRASQSFSSDLAWYQQKPGQAPRLLIYGASSRATGIPDRFSGSGSGTDFTLTISRLEPADFAVYYCQQYGSSPPVTFGGGTKVEIKGGGGSGGSGSGGGGSASGSGEVQLVESGGGLIQPGGSLRLSCAASGVIVSYNYMNWVRQAPGKGLEWVSVIYSGGSTFYADSVRGRFTISRDNSKNTLYLQMNSLRAEDTAVYYCARDLGPAGAFDIWGLGTMVTVSSGGSSGQVQLVESGGGVVQPGRSLRLSCAASGFTLSSYGMHWVRQAPGKGLEWVAVISYDGSNKYYVDSVKGRFTISRDNSKNTLYLQMNSLRAEDTAVYYCRWAYWELLPDYYYGMDVWGQGTTVTVSSASGGSGDKTHTCPPCPAPELLGGPSVFLFPPKPKDTLMISRTPEVTCVVVDVSHEDPEVKFNWYVDGVEVHNAKTKPREEQYNSYVVSVLTVLHQDWLNGKEYKCKVSNKALPAPIEKTISKAKGQPREPQVCTLPPSRDELTKNQVSLSCAVKGFYPSDIAVEWESNGQPENNYKTTPPVLDSDGSFFLVSKLTVDKSRWQQGNVFSCSVLHEALHSHYTQKSLSLSPG
Turning to B4, the IC50, pseudovirus neutralization in assay [1] was 1.5 ng/mL; in assay [2] it was 2.91 ng/mL; in assay [3] it was 6.02 ng/mL; in assay [4] it was 6.09 ng/mL; in assay [5], 2.68 ng/mL. The IC80, pseudovirus neutralization in assay [1] stood at 8.57 ng/mL; in assay [2], 5.43 ng/mL; in assay [3] it was 22.3 ng/mL; in assay [4], 18 ng/mL; in assay [5], 6.06 ng/mL.
